B1: Azoarcus group I ribozyme (parent)
chain: GUGCCUUGCGCCGGGAAACCACGCAAGGGAUGGUGUCAAAUUCGGCGAAACCUAAGCGCCCGCCCGGGCGUAUGGCAACGCCGAGCCAAGCUUCGGCGCCUGCGCCGAUGAAGGUGUAGAGACUAGACGGCACCCACCUAAGGCAAACGCUAUGGUGAAGGCAUAGUCCAGGGAGUGGCGAAAGUCACACAAACCGG

The variants in this data set derive from B1. Description: reverse-splicing fitness (ratio to wild type); higher = more active; in vitro selection; Mg2+ level not given. The essentials:
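An in vitro group I ribozyme library with randomized positions was T7-transcribed and gel-purified. In triplicate, 10 pmol RNA in EPPS pH 7.5 was reacted with 50 pmoles of a 30-nt RNA substrate for 1 h at 37 °C across several added MgCl2 levels (1–48 mM), then stopped with EDTA. Products were reverse transcribed from a substrate-complementary primer, PCR-amplified and sequenced (HiSeq 4000). Fitness is a variant's read proportion after selection over that before, normalised to wild type.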
Regarding A111C C169G, the reverse-splicing fitness was found to be 0.0716.

For the variant A111C C169A, the reverse-splicing fitness was determined as 0.032.

Consider A111C A145C C150A U176C, for which the reverse-splicing fitness amounted to 0.104.

As for A111C A145C C150A U176A, the reverse-splicing fitness was determined as 0.0687.

On to A111C A145C C150A U176G, for which the reverse-splicing fitness came to 0.0323.

For A111C A145U C169G U176A, the reverse-splicing fitness is 0.0179.

For A111C A145U C169G U176C, the reverse-splicing fitness worked out at 0.0264.

Consider A111C A145U C169G U176G, for which the reverse-splicing fitness was 0.00719.

For A111C C150A C169U U176A, the reverse-splicing fitness came to 0.0226.

Consider A111C C150A C169U U176G, for which the reverse-splicing fitness was 0.00825.

In the case of A111C C150A C169U U176C, the reverse-splicing fitness was 0.0184.

For A111C A145G C150U U176A, the reverse-splicing fitness was 0.313.

For the variant A111C A145G C150U U176C, the reverse-splicing fitness was 0.404.

In the case of A111C A145G C150U U176G, the reverse-splicing fitness was 0.135.

In the case of A111C C150A C169G U176C, the reverse-splicing fitness was 0.0246.

In the case of A111C C150A C169G U176A, the reverse-splicing fitness amounted to 0.016.

In the case of A111C C150A C169G U176G, the reverse-splicing fitness is 0.00762.

Regarding A111C A145C C150A C169A, the reverse-splicing fitness is 0.00829.

As for A111C A145C C150A C169G, the reverse-splicing fitness worked out at 0.00874.

For A111C A145C C150A C169U, the reverse-splicing fitness came to 0.0128.

Turning to A111G A120C A145C C150A, the reverse-splicing fitness was 0.0611.

With A111G A120C A145C C150G, the reverse-splicing fitness was found to be 0.136.

As for A111G A120C A145C C150U, the reverse-splicing fitness was 0.298.

Turning to A111C C150A U176C, the reverse-splicing fitness stood at 0.147.

As for A111C C150A U176A, the reverse-splicing fitness amounted to 0.12.

As to A111C C150A U176G, the reverse-splicing fitness stood at 0.0531.

Consider A111G A120C A145C C150U C169A U176G, for which the reverse-splicing fitness was 0.00419.

Take A111G A120C A145C C150U C169A U176C: the reverse-splicing fitness is 0.00426.

Regarding A111G A120C A145C C150U C169A U176A, the reverse-splicing fitness was found to be 0.00824.

A111C A145U C150U C169A U176G: the reverse-splicing fitness is 0.00758.

As for A111C A145U C150U C169A U176C, the reverse-splicing fitness came out at 0.0129.

On to A111C A145U C150U C169A U176A, for which the reverse-splicing fitness was determined as 0.0122.

Turning to A111C A145C C150A C169A U176G, the reverse-splicing fitness amounted to 0.00714.

For the variant A111C A145C C150A C169A U176A, the reverse-splicing fitness was 0.0117.

Turning to A111C A145C C150A C169A U176C, the reverse-splicing fitness came to 0.00898.

Take A111C A145G C150G U176C: the reverse-splicing fitness came to 0.13.

For the variant A111C A145G C150G U176G, the reverse-splicing fitness came to 0.0194.

Take A111C A145G C150G U176A: the reverse-splicing fitness came to 0.0686.

Consider A111G A120C A145C C150A C169G U176G, for which the reverse-splicing fitness is 0.00452.

Turning to A111G A120C A145C C150A C169G U176C, the reverse-splicing fitness was determined as 0.00982.

For the variant A111G A120C A145C C150A C169G U176A, the reverse-splicing fitness amounted to 0.0185.

On to A111C C150G U176G, for which the reverse-splicing fitness was found to be 0.0131.

Consider A111C C150G U176A, for which the reverse-splicing fitness came to 0.0504.

With A111C C150G U176C, the reverse-splicing fitness is 0.0763.

For A111C A145G C150G C169U U176G, the reverse-splicing fitness came out at 0.00713.

For the variant A111C A145G C150G C169U U176C, the reverse-splicing fitness turned out to be 0.0142.

A111C A145G C150G C169U U176A: the reverse-splicing fitness was 0.0107.

In the case of A111C A145G C150A C169G U176C, the reverse-splicing fitness was 0.0293.

As to A111C A145G C150A C169G U176G, the reverse-splicing fitness was 0.00728.

A111C A145G C150A C169G U176A: the reverse-splicing fitness was 0.0153.

Consider A111C A145U C150U C169A, for which the reverse-splicing fitness stood at 0.0212.

For A111C A145U C150U C169U, the reverse-splicing fitness was 0.0751.

On to A111C A145U C150U C169G, for which the reverse-splicing fitness came out at 0.0433.

A111C A145C C150A C169G U176G: the reverse-splicing fitness is 0.00627.

For A111C A145C C150A C169G U176A, the reverse-splicing fitness came to 0.0274.

A111C A145C C150A C169G U176C: the reverse-splicing fitness amounted to 0.0189.

Turning to A111C A145G C150G, the reverse-splicing fitness was 0.212.

With A111C A145G C150A, the reverse-splicing fitness was 0.31.

For the variant A111C A145G C150U, the reverse-splicing fitness came out at 0.679.

Consider A111C A145G C150G C169A U176G, for which the reverse-splicing fitness amounted to 0.00766.

For A111C A145G C150G C169A U176C, the reverse-splicing fitness was 0.011.

As for A111C A145G C150G C169A U176A, the reverse-splicing fitness amounted to 0.0119.

Regarding A111C A145C C169U, the reverse-splicing fitness is 0.118.

Take A111C A145C C169A: the reverse-splicing fitness was 0.0285.

In the case of A111C A145C C169G, the reverse-splicing fitness is 0.0652.

For A111C A145G C150U C169G, the reverse-splicing fitness is 0.0511.

A111C A145G C150U C169A: the reverse-splicing fitness was found to be 0.0243.

Consider A111C A145G C150U C169U, for which the reverse-splicing fitness was 0.0877.

On to A111C A145G U176A, for which the reverse-splicing fitness was 0.432.

With A111C A145G U176G, the reverse-splicing fitness is 0.185.

Turning to A111C A145G U176C, the reverse-splicing fitness turned out to be 0.401.

Regarding A111C A145G C150G C169U, the reverse-splicing fitness amounted to 0.0157.

Regarding A111C A145G C150G C169G, the reverse-splicing fitness was 0.0116.

On to A111C A145G C150G C169A, for which the reverse-splicing fitness is 0.00939.

Regarding A111C C150A C169A U176C, the reverse-splicing fitness was 0.0227.

For A111C C150A C169A U176G, the reverse-splicing fitness stood at 0.00777.

Turning to A111C C150A C169A U176A, the reverse-splicing fitness was found to be 0.0182.

Consider A111C C169U U176C, for which the reverse-splicing fitness was 0.0304.

In the case of A111C C169U U176G, the reverse-splicing fitness is 0.00757.

Consider A111C C169U U176A, for which the reverse-splicing fitness worked out at 0.0264.

Regarding A111C A145G C169A, the reverse-splicing fitness amounted to 0.0355.

For A111C A145G C169G, the reverse-splicing fitness was 0.0737.

Turning to A111C A145G C169U, the reverse-splicing fitness was 0.126.

The values above are taken from the RNAGym collection of RNA variant scans (doi:10.1093/molbev/msab373).
